Assay results reported in patent US12491259B2, “Anti-variable MUC1* antibodies and uses thereof” (Minerva Biotechnologies Corporation, priority 2022, dated 2025).

System: T47D-MUC1* breast cancer cells
Assay: ADC cell killing, photographs and PrestoBlue live/dead cell assay
Format: cell-based, human
Conditions: 500 nM and 6.2 nM, 120 hours
Protocol: T47D-MUC1* is a cell line in which T47D cells have been transduced to express even more MUC1*. MNC2-ADC was incubated with T47D-WT cells (FIG. 10A-10G) or T47D-MUC1* cells (FIG. 11A-11G). […] These experiments are shown as just one example. […] The toxin that is attached to the anti-MUC1* antibody may be one of several known to those skilled in the art. Similarly, MNC2 may be human or humanized.
In this next experiment, a valine-citrulline p-aminobenzylcarbamate (VC-PAB) linker was used to connect the deglycosylated antibody and the toxin. The linker is separately coupled to the MMAE at one end, then the other end is reacted with maleimide, then coupled to the antibody after reduction through alkylation. MMAE inhibits cell division by blocking the polymerization of tubulin. […] The viability of the 72 hour co-cultures was measured using a cell death indicator called PrestoBlue™ (Thermo Fisher Scientific, Waltham, MA) (FIG. 17). […]
As another example of how antibodies of the invention can be incorporated into ADCs, antibody drug conjugates, for the treatment of MUC1* positive cancers, a toxin was attached to another anti-MUC1* antibody, 20A10. […] The viability of the 72 hour co-cultures was measured using a cell death indicator called PrestoBlue™ (Thermo Fisher Scientific, Waltham, MA) (FIG. 19). […]

B1: MNC2-Deruxtecan (conjugate)
VH: EVQLVESGGGLVKPGGSLRLSCAASGFTFSGYAMSWVRQAPGKGLEWVSTISSGGTYIYYPDSVKGRFTISRDNAKNSLYLQMNSLRAEDTAVYYCARLGGDNYYEYFDVWGKGTTVTVSS
VL: DIVLTQSPASLAVSPGQRATITCRASKSVSTSGYSYMHWYQQKPGQPPKLLIYLASNLESGVPARFSGSGSGTDFTLTINPVEANDTANYYCQHSRELPFTFGGGTKVEIKRT
killing effect in photographs: significant decrease in cell number
